Test results taken from paper doi:10.1101/2023.07.05.547778 (bioRxiv, 2023).
Where no end group is shown, it is not given here. The star is where a group is joined. Biotin = O=C1N[C@H]2[C@H](CS[C@H]2CCCCC(=O)*)N1

Key:
[1] = target: T1, APDTRPAPG (synthetic MUC1 epitope peptide without N-terminal biotin or linker); test: crystal structure
T1 chain: APDTRPAPG

[2] = target: T2, biotin-GGS-APDTRPAPG (N-terminally biotinylated synthetic MUC1 VNTR peptide); test: SPR
T2 chain: Biotin-GGSAPDTRPAPG

B1: recombinant 139H2 Fab fragment (Fab, V domains shown)
VH: QVQLQQSGAELVKPGASVKLSCKASGYTFTNYYMYWVLQRPGQGLEWIGEINPSNGGTTFNEKFKNKATLTVDKSSSTAYMQLNSLTSEDSAVYYCTRSRYGNYVNYGMDYWGQGTSVTVSS
VL: DIVMSQSPSSLAVSVGEKVTMSCKSSQSLLYSNTQKNYLAWYQQKPGQSPKLLIYWASTRESGVPDRFTGSGSGTDFTLTISSVKAENLAVYYCQQYYRYPPTFGGGTKLELK
- binding result [1]: binds
- Kd [2]: 4.5 µM
